Experimental data from IntAct's records for PubMed 29892012.

B1: Protein SSX5 (Homo sapiens), O60225 (parent)
chain: MNGDDAFVRRPRVGSQIPEKMQKAFDDIAKYFSEKEWEKMKASEKIIYVYMKRKYEAMTKLGFKATLPPFMRNKRVADFQGNDFDNDPNRGNQVEHPQMTFGRLQGIFPKITPEKPAEEGNDSKGVPEASGPQNNGKQLRPSGKLNTSEKVNKTSGPKRGKHAWTHRVRERKQLVIYEEISDPQEDDE
partner: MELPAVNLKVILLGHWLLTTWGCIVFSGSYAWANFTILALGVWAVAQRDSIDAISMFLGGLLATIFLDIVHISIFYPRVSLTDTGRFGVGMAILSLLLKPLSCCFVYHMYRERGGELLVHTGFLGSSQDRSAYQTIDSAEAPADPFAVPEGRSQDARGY
B2: Retinoic acid receptor alpha (Homo sapiens), P10276 (parent)
chain: MASNSSSCPTPGGGHLNGYPVPPYAFFFPPMLGGLSPPGALTTLQHQLPVSGYSTPSPATIETQSSSSEEIVPSPPSPPPLPRIYKPCFVCQDKSSGYHYGVSACEGCKGFFRRSIQKNMVYTCHRDKNCIINKVTRNRCQYCRLQKCFEVGMSKESVRNDRNKKKKEVPKPECSESYTLTPEVGELIEKVRKAHQETFPALCQLGKYTTNNSSEQRVSLDIDLWDKFSELSTKCIIKTVEFAKQLPGFTTLTIADQITLLKAACLDILILRICTRYTPEQDTMTFSDGLTLNRTQMHNAGFGPLTDLVFAFANQLLPLEMDDAETGLLSAICLICGDRQDLEQPDRVDMLQEPLLEALKVYVRKRRPSRPHMFPKMLMKITDLRSISAKGAERVITLKMEIPGSMPPLIQEMLENSEGLDTLSGQPGGGGRDGGGLAPPPGSCSPSLSPSSNRSSPATHSP
partner: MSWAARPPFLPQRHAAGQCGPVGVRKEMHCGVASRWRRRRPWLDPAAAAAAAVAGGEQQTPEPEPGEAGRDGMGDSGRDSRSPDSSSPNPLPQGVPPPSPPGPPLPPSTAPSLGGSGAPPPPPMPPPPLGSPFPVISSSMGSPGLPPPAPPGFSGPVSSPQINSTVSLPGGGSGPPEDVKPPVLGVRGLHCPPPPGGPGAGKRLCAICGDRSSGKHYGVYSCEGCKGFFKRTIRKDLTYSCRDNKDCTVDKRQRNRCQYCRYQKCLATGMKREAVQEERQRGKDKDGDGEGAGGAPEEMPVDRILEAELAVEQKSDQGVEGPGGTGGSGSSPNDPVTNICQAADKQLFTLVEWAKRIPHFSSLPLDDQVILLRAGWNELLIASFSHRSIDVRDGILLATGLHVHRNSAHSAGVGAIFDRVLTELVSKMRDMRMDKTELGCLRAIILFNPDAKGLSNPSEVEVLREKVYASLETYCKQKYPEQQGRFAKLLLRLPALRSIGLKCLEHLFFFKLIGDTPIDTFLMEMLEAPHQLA
B3: Melanoma-associated antigen 8 (Homo sapiens), P43361 (parent)
chain: MLLGQKSQRYKAEEGLQAQGEAPGLMDVQIPTAEEQKAASSSSTLIMGTLEEVTDSGSPSPPQSPEGASSSLTVTDSTLWSQSDEGSSSNEEEGPSTSPDPAHLESLFREALDEKVAELVRFLLRKYQIKEPVTKAEMLESVIKNYKNHFPDIFSKASECMQVIFGIDVKEVDPAGHSYILVTCLGLSYDGLLGDDQSTPKTGLLIIVLGMILMEGSRAPEEAIWEALSVMGLYDGREHSVYWKLRKLLTQEWVQENYLEYRQAPGSDPVRYEFLWGPRALAETSYVKVLEHVVRVNARVRISYPSLHEEALGEEKGV
B4: Methanethiol oxidase (Homo sapiens), Q13228 (parent)
chain: MATKCGNCGPGYSTPLEAMKGPREEIVYLPCIYRNTGTEAPDYLATVDVDPKSPQYCQVIHRLPMPNLKDELHHSGWNTCSSCFGDSTKSRTKLVLPSLISSRIYVVDVGSEPRAPKLHKVIEPKDIHAKCELAFLHTSHCLASGEVMISSLGDVKGNGKGGFVLLDGETFEVKGTWERPGGAAPLGYDFWYQPRHNVMISTEWAAPNVLRDGFNPADVEAGLYGSHLYVWDWQRHEIVQTLSLKDGLIPLEIRFLHNPDAAQGFVGCALSSTIQRFYKNEGGTWSVEKVIQVPPKKVKGWLLPEMPGLITDILLSLDDRFLYFSNWLHGDLRQYDISDPQRPRLTGQLFLGGSIVKGGPVQVLEDEELKSQPEPLVVKGKRVAGGPQMIQLSLDGKRLYITTSLYSAWDKQFYPDLIREGSVMLQVDVDTVKGGLKLNPNFLVDFGKEPLGPALAHELRYPGGDCSSDIWI
partner: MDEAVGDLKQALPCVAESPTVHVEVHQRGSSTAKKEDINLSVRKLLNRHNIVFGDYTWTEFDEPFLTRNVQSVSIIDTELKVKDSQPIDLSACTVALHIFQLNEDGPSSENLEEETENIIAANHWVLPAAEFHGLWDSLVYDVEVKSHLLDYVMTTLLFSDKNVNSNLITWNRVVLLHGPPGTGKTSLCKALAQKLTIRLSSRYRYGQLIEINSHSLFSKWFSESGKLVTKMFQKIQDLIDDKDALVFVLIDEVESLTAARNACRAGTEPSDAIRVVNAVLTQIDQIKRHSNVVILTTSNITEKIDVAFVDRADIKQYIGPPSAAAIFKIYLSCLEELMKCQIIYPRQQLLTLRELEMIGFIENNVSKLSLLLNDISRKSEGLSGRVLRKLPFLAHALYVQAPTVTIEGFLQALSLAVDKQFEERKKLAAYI

Variants of: B1
Conditions: with atrap_human AGTRAP
In the case of MNGDDAFVRRPRVGSQIPEKMQKAFDDIAKYFSEKEWEKMKASEKIIYVYMKRRYEAMTKLGFKATLPPFMRNKRVADFQGNDFDNDPNRGNQVEHPQMTFGRLQGIFPKITPEKPAEEGNDSKGVPEASGPQNNGKQLRPSGKLNTSEKVNKTSGPKRGKHAWTHRVRERKQLVIYEEISDPQEDDE [K54R], the “effect of a mutation on the interaction” value is reported as “disrupting interaction strength”.

Variants of: B2
Conditions: with rxrb_human RXRB
MASNSSSCPTPGGGHLNGYPVPPYAFFFPPMLGGLSPPGALTTLQHQLPVSGYSTPSPATIETQSSSSEEIVPSPPSPPPLPRIYKPCFVCQDKSSGYHYGVSACEGCKGFFRRSIQKNMVYTCHRDKNCIINKVTRNRCQYCRLQKCFEVGMSKESVRNDRNKKKKEVPKPECSESYTLTPEVGELIEKVRKAHQETFPALCQLGKYTTNNSSEQRVSLDIDLWDKFSELSTKCIIKTVEFAKQLPGFTTLTIADQITLLKAACLDILILRICTRYTPEQDTMTFSDGLTLNRTQMHNAGFGPLTDLVFAFANQLLPLEMDDAETGLLSAICLICGDRQDLEQPDRVDMLQEPLLEALKVYVRKRRPSRPHMFLKMLMKITDLRSISAKGAERVITLKMEIPGSMPPLIQEMLENSEGLDTLSGQPGGGGRDGGGLAPPPGSCSPSLSPSSNRSSPATHSP [P375L] was tested, and the “effect of a mutation on the interaction” value was “disrupting interaction strength”. For MASNSSSCPTPGGGHLNGYPVPPYAFFFPPMLGGLSPPGALTTLQHQLPVSGYSTPSPATIETQSSSSEEIVPSPPSPPPLPHIYKPCFVCQDKSSGYHYGVSACEGCKGFFRRSIQKNMVYTCHRDKNCIINKVTRNRCQYCRLQKCFEVGMSKESVRNDRNKKKKEVPKPECSESYTLTPEVGELIEKVRKAHQETFPALCQLGKYTTNNSSEQRVSLDIDLWDKFSELSTKCIIKTVEFAKQLPGFTTLTIADQITLLKAACLDILILRICTRYTPEQDTMTFSDGLTLNRTQMHNAGFGPLTDLVFAFANQLLPLEMDDAETGLLSAICLICGDRQDLEQPDRVDMLQEPLLEALKVYVRKRRPSRPHMFPKMLMKITDLRSISAKGAERVITLKMEIPGSMPPLIQEMLENSEGLDTLSGQPGGGGRDGGGLAPPPGSCSPSLSPSSNRSSPATHSP [R83H], the “effect of a mutation on the interaction” value was “with no effect”.

Variants of: B3
Conditions: with bex5_human BEX5, Q5H9J7
bex5_human BEX5, Q5H9J7, sequence (Q5H9J7 whole entry): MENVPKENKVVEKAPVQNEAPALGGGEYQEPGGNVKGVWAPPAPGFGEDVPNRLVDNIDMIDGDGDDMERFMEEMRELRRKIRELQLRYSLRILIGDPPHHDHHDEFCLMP
For MLLGQKSQRYKAEEGLQAQGEAPGLMDVQIPTAEEQKAASSSSTLIMGTLEEVTDSGSPSPPQSPEGASSSLTVTDSTLWSQSDEGSSSNEEEGPSTSPDPAHLESLFREALDEKVAELVRFLLRKYQIKEPVTKAEMLESVIKNYKNHFPDIFSKASECMQVIFGIDVKEVDPAGHSYILVTCLGLSYDGLLGDDQSTPKTGLLIIVLGMILMEGSCAPEEAIWEALSVMGLYDGREHSVYWKLRKLLTQEWVQENYLEYRQAPGSDPVRYEFLWGPRALAETSYVKVLEHVVRVNARVRISYPSLHEEALGEEKGV [R218C], the “effect of a mutation on the interaction” value was “with no effect”.

Variants of: B4
Conditions: with pch2_human TRIP13, Q15645
With MATKCGNCGPGYSTPLEAMKGPREEIVYLPCIYRNTGTEAPDYLATVDVDPKSPQYCQVIHRLPMPNLKDELHHSGWNTCSSCFGDSTKSRTKLVLPSLISSRIYVVDVGSEPRAPKLHKVIEPKDIHAKCELAFLHTSHCLASGEVMISSLGDVKGNGKGGFVLLDGETFEVKGTWERPGGAAPLGYDFWYQPRHNVMISTEWAAPNVLRDGFNPADVEAGLYGSHLYVWDWQRHEIVQTLSLKDGLIPLEIRFLHNPDAAQGFVGCALSSTIQRFYKNEGGTWSVEKVIQVPPKKVKGWLLPEMPGLITDILLSLDDRFLYFSNWLHGDLRQYDISDPQRPRLTGQLFLGGSIVKGGPVQVLEDEELKSQPEPLVVKGKRVAGGPQMIQLSLDGKCLYITTSLYSAWDKQFYPDLIREGSVMLQVDVDTVKGGLKLNPNFLVDFGKEPLGPALAHELRYPGGDCSSDIWI [R398C] the “effect of a mutation on the interaction” value was “with no effect”.
